From US20040106105A1 (published 2004)
Residue numbers refer to the chain shown, from its start. In names and notes the source's numbering stands. Several values for one entry are separate records, joined by “and”; a condition that tells them apart may be missing. Identical values can stand only once.

B1: Fab S8 (Fab, V domains shown)
VH: LESGGGLVKPGGSLRLSCAASGFTFSSYAMHWVRQAPGKGLEWVAFIWFDGSNERYADSVKGRFTITRDNPKNTLYLQMNSLRVEDTAVYYCVRRGGSILTGFHLDYWGQGTLVTVSS
VL: ELTQSPSSLSASVGDRVTITCRASQGIRDDLGWYQQKPGKAPKRLIYAASNLQSGVPSRFSGGGSGTEFTLTISSLQPEDFATYYCLQHNSYPLTFGGGTKVEIKR
B2: Fab S20 (Fab, V domains shown)
VH: B1 VH with L7V, K9Q, G12R, A19S, T24S, S26R, S27D
VL: B1 VL
B3: Fab S20 HCDR3 mutant Arg95Gly (Fab, V domains shown)
VH: B1 VH with L7V, K9Q, G12R, A19S, T24S, S26R, S27D, R95G
VL: B1 VL
notes: See note of m21
B4: Fab S8 HCDR3 mutant Arg95Pro (Fab, V domains shown)
VH: B1 VH with R95P
VL: B1 VL
B5: Fab S20 HCDR3 mutant Arg95Asp (Fab, V domains shown)
VH: B1 VH with L7V, K9Q, G12R, A19S, T24S, S26R, S27D, R95D
VL: B1 VL
notes: The text names only S2095K for S20
B6: Fab S8 HCDR3 mutant Arg95Gly (Fab, V domains shown)
VH: B1 VH with R95G
VL: B1 VL
B7: Fab S8 HCDR3 mutant Arg95Asp (Fab, V domains shown)
VH: B1 VH with R95D
VL: B1 VL
B8: Fab S20 HCDR3 mutant Arg95Pro (Fab, V domains shown)
VH: B1 VH with L7V, K9Q, G12R, A19S, T24S, S26R, S27D, R95P
VL: B1 VL
notes: See note of m21

Molecular target: B1
Assay: phage display panning on coated Fab S8, round 3, 12-mer library, 1 clone; clone not tested singly

Row | Binder | binding result
1 | KAPIPSSIPGFR [peptide of phage clone 3r4] | binds
2 | SAKPSYQPYAQP [peptide of phage clone 3r1] | binds
3 | MQSQLYRDSPRG [peptide of phage clone 3r9] | binds
4 | GTTQNAMSLARL [peptide of phage clone 3r5] | binds
5 | HIETLLPAPELS [peptide of phage clone 3r3] | binds
6 | LPNATKLAPISP [peptide of phage clone 3r10] | binds
7 | QPTTPFFDWDTH [peptide of phage clone 3r6] | binds
8 | HASTPSSPWSRP [peptide of phage clone 3r7] | binds

Molecular target: B1
Assay: phage display panning on coated Fab S8, round 2, 12-mer library, 1 clone; clone not tested singly

Row | Binder | binding result
9 | FYTPTMHSYGIQ [peptide of phage clone 2r6] | binds
10 | MPNPRQNPPPPL [peptide of phage clone 2r4] | binds
11 | HTKCSDASCPLI [peptide of phage clone 2r1] | binds
12 | NYFQQPPERHSS [peptide of phage clone 2r10] | binds
13 | HGHPLKTNTHRS [peptide of phage clone 2r3] | binds
14 | NFQTPDRTQSNL [peptide of phage clone 2r5] | binds
15 | TTGDHRAFWLGG [peptide of phage clone 2r9] | binds
16 | SVSPNMRMLHWW [peptide of phage clone 2r7] | binds

Molecular target: B1
Assay: phage display panning on coated Fab S8, round 4, 12-mer library, 1 clone; clone not tested singly

Row | Binder | binding result
17 | SASTPSSPWSRP [peptide of phage clone 4r17] | binds
18 | TAMNLGPALFRT [peptide of phage clone 4r3] | binds
19 | ADVMLHSKHVQM [peptide of phage clone 4r15] | binds
20 | TMQPYKSWWSSK [peptide of phage clone 4r10] | binds
21 | WFKPPQTPLTLM [peptide of phage clone 4r5] | binds

Molecular target: gp120 of HIV-1 SF-2 strain (HIV-1 SF-2, UniProt P03378 32-509)
Assay: cell-based or functional assay

Row | Binder | % neutralisation, infectivity reduction assay (IRA) in MT-2 cells
22 | B1 | 50 % neutralisation at 1 µg/ml and > 90 % neutralisation at 10 µg/ml

Molecular target: gp120 of HIV-1 RF strain (HIV-1 RF, UniProt P04579 32-519)
Assay: cell-based or functional assay

Row | Binder | % neutralisation, infectivity reduction assay (IRA) in MT-2 cells
23 | B1 | 50 % neutralisation at 1 µg/ml and > 90 % neutralisation at 10 µg/ml

Molecular target: gp120 of HIV-1 MN strain (HIV-1 MN, UniProt P05877 32-513)
Assay: cell-based or functional assay

Row | Binder | % neutralisation, neutralisation plaque assay (NPA) in MT-4 cells | % neutralisation, infectivity reduction assay (IRA) in MT-2 cells
24 | B2 | 90 % neutralisation at 20 µg/ml | 
25 | B1 | 90 % neutralisation at 20 µg/ml | 50 % neutralisation at 1 µg/ml and > 90 % neutralisation at 10 µg/ml

Molecular target: B1
Assay: phage display panning on coated Fab S8, round 4, 7-mer library Ph.D.-C7, 2 clones; clone not tested singly

Row | Binder | binding result
26 | SAMEAPP (also called 4c7) [peptide of phage clone c72R4] | binds

Molecular target: T1, recombinant gp120 III-B (HIV-1 III-B, UniProt P04578 33-511)
T1 construct: domain: gp120; also called gp120 III-B (LAI); HIV-1 gp120
Assay: ELISA on gp120 III-B
Method: Soluble Fabs from each resulting HC/LC pair were tested for binding to gp120 Ill-B and BSA in ELISA a s above. […] Soluble Fabs from each mutant were tested for binding to gp120 III-B and BSA in ELISA as above.

Row | Binder | binding result
27 | B3 | no binding
28 | B4 | no binding
29 | B5 | no binding
30 | B6 | no binding
31 | B7 | no binding
32 | B8 | no binding

Molecular target: B1
Assay: phage display panning on coated Fab S8, round 1, 12-mer library, 1 clone; clone not tested singly

Row | Binder | binding result
33 | CLSSNSSPPPRP [peptide of phage clone 1r8] | binds
34 | FPASMPGLLLRV [peptide of phage clone 1r2] | binds
35 | LFQKQIESPWRS [peptide of phage clone 1r10] | binds
36 | QDRALITPLDQT [peptide of phage clone 1r4] | binds
37 | SGLDGMHVNSPW [peptide of phage clone 1r1] | binds
38 | HDEFVWISIWEP [peptide of phage clone 1r5] | binds
39 | SSCAAFWSKARP [peptide of phage clone 1r7] | binds
40 | HTRVLPSTAMTL [peptide of phage clone 1r9] | binds
41 | WTTNFADPPSST [peptide of phage clone 1r6] | binds
42 | QVMRMMPNGVYC [peptide of phage clone 1r3] | binds
